Data taken from patent US8796201B2 (The Board of Trustees of the Leland Stanford Junior …, priority 2002, dated 2014).

Assays:
[1] = system: PQPQLPYPQPQLP and LQLQPFPQPQLPYPQPQLPYPQPQLPYPQPQPF; assay: Competitive proteolysis of 13-mer and 33-mer by each PEP; assay type: biochemical, wheat; settings: 50 μM PQPQLPYPQPQLP, 10 μM 33-mer, 0.1 μM PEP
Procedure: FIGS. 12A-12C. […] 10 μM of the longer peptide and 50 μM of the shorter peptide were co-incubated with 0.1 μM of (A) FM PEP; (B) MX PEP; (C) SC PEP.
To examine the chain length specificity of individual PEPs, we performed competitive reactions containing both gluten-derived peptides, subjected the reaction mixture to RP-HPLC, and monitored the disappearance of each substrate was monitored as a function of time.

[2] = system: trypsin, chymotrypsin, elastase and carboxypeptidase A; assay: Pancreatic protease stability; assay type: in vitro ADME; settings: pH 6.5
Procedure: FIG. 9. Resistance of the FM PEP and the MX PEP to inactivation by gastric and pancreatic enzymes. Pancreatic enzyme stability was evaluated by treating 5 U/ml of the FM PEP and the MX PEP with 1 mg/ml trypsin, 1 mg/ml chymotrypsin, 0.2 mg/ml elastase and 0.2 mg/ml carboxypeptidase A (40 mM phosphate, pH=6.5). Pepsin stability was tested by treating the FM PEP and the MX PEP (5 U/ml) with 1 mg/ml pepsin (pH=2, 20 mM HCl).
Gastric and Pancreatic Protease Stability. […] Absorption was measured at 410 nm for 1 to 2 min every 10 s to assay residual activity. […] Enzyme activities are expressed as a percentage of the maximum activity, typically observed at the zero time point.
PEP Stability. […] We therefore evaluated the extent to which the activity of each PEP remains intact after 10 min of incubation at selected pH values between 1.6 and 3.9. […] Since therapeutic efficacy would require a PEP to act upon gluten in conjunction with pancreatic proteases that are secreted into the duodenum, the resistance of FM PEP and MX PEP toward both gastric and pancreatic enzymes was evaluated. For this we pre-incubated the enzymes with physiological quantities of either pepsin (at pH 2) or a cocktail comprising of trypsin, chymotrypsin, elastase and carboxypeptidase A (at pH 6.5).

[3] = system: PQPQLPYPQPQLP, 33-mer and pepsin-treated gluten; assay: Competitive proteolysis in pepsin-treated gluten with pancreatic enzymes and BBM; assay type: biochemical, wheat; settings: pancreatic enzymes, BBM
Procedure: FIGS. 13A-13B. […] This complex mixture of substrates was treated under physiological conditions with a mixture of pancreatic enzymes (trypsin, chymotrypsin, carboxypeptidase, elastase), brush border membrane enzymes (derived from rat small intestine) and either (A) FM PEP or (B) MX PEP.
The resulting solution was neutralized using 10 M NaOH and diluted to 10 g/L in a phosphate buffer (40 mM, pH 6.5). […] Prolyl endopeptidase (FM or MX; 1×: 500 mU/ml; 5×: 2.5 U/ml; 10×: 5 U/ml) and rat intestinal brush border surface membranes (BB, 1×: 40 mU/ml, 2×: 80 mU/ml, DPP IV activity) were added to a total volume of 150 μl. The mixture was incubated at 37° C. and […] aliquots were taken at 0, 5, 10, 30 and 60 min and immediately heat deactivated.

PQPQLPYPQPQLP = assay: Competitive assay of PEP specificity for gliadin peptide versus Suc-Ala-Pro-pNA; assay type: biochemical, wheat; settings: PQPQLPYPQPQLP vs Suc-Ala-Pro-pNA
Procedure: Substrate Specificity. In addition to the reference substrates above, enzyme specificity was also evaluated using two immunogenic peptides derived from the sequence of γ-gliadin proteins in gluten. Both peptides were synthesized using solid-phase peptide synthesis. The peptide (SEQ ID NO:4) […] contains the immunodominant γII-epitope, and is resistant to proteolysis by pepsin or any pancreatic enzyme. PEP specificity toward this substrate was assessed in a competitive assay in which 100 μM (SEQ ID NO:4) […] and 100 μM Suc-Ala-Pro-pNA were mixed and reacted with 0.02 μM PEP at 25° C. The initial velocity of Suc-Ala-Pro-pNA cleavage was measured spectrophotometrically, whereas the initial velocity of (SEQ ID NO:4) […] hydrolysis was determined via HPLC. The apparent specificity, kcat/KM, for the hydrolysis of (SEQ ID NO:4) […] could be determined based on the known kcat/KM of the enzyme for Suc-Ala-Pro-pNA and the observed reaction rates of the two substrates. […]
The kcat/KM values of each PEP were determined in an assay mixture containing (SEQ ID NO:4) […] as well as Suc-Ala-Pro-pNA as a competing substrate. The rates of disappearance of both substrates were determined by independent detection methods. The initial rate of disappearance of (SEQ ID NO:4) […] was measured by HPLC, whereas the rate of consumption of Suc-Ala-Pro-pNA was measured spectrophotometrically. […]

Molecule | chain length selectivity, 13-mer vs 33-mer [1] | resistance to pancreatic enzymes [2] | relative rates of proteolysis of PQPQLPYPQPQLP, 33-mer and other gluten peptides [3] | time for breakdown of PQPQLPYPQPQLP and other smaller peptides [3] | higher specificity for the gluten peptide as compared to the chromogenic substrate (PQPQLPYPQPQLP)
MX PEP: novel recombinant prolyl endopeptidase from Myxococcus xanthus (Genbank AF127082, SEQ ID NO:47) (protein, listed as Myxococcus xanthus) MSYPATRAEQVVDTLHGVQVADPYRWLEDEKAPEVQTWMTAQNAHAREALAKFPGREALAARFKELFYTDSVSTPSRRNGRFFYVRTHKDKEKAILYWRQGESGQEKVLLDPNGWSKDGTVSLGTWAVSWDGKKVAFAQKPNAADEAVLHVIDVDSGEWSKVDVIEGGKYATPKWTPDSKGFYYEWLPTDPSIKVDERPGYTTIRYHTLGTEPSKDTVVHERTGDPTTFLQSDLSRDGKYLFVYILRGWSENDVYWKRPGEKDFRLLVKGVGAKYEVHAWKDRFYVLTDEGAPRQRVFEVDPAKPARASWKEIVPEDSSASLLSVSIVGGHLSLEYLKDATSEVRVATLKGKPVRTVQLPGVGAASNLMGLEDLDDAYYVFTSFTTPRQIYKTSVSTGKSELWAKVDVPMNPEQYQVEQVFYASKDGTKVPMFVVHRKDLKRDGNAPTLLYGYGGFNVNMEANFRSSILPWLDAGGVYAVANLRGGGEYGKAWHDAGRLDKKQNVFDDFHAAAEYLVQQKYTQPKRLAIYGGSNGGLLVGAAMTQRPELYGAVVCAVPLLDMVRYHLFGSGRTWIPEYGTAEKPEDFKTLHAYSPYHHVRPDVRYPALLMMAADHDDRVDPMHARKFVAAVQNSPGNPATALLRIEANAGHGGADQVAKAIESSVDLYSFLFQVLDVQGAQGGVAAQGR | clear preference for the 13-mer peptide | remarkably stable to destruction | hydrolysis of the 33-mer occurred at a slower rate | 10 min | 5 fold
FM PEP: recombinant prolyl endopeptidase from Flavobacterium meningosepticum (Genbank D10980) (protein) QNSNVLKYPETKKVSHTDTYFGTQVSDPYRWLEDDRAEDTKAWVQQEVKFTQDYLAQIPFRDQLKKQLMDIWNYEKISAPFKKGKYTYFSKNDGLQAQSVLYRKDAAGKTEVFLDPNKFSEKGTTSLASVSFNKKGTLVAYSISEGGSDWNKIIILDAETKKQLDETLLDVKFSGISWLGDEGFFYSSYDKPKEGSVLSGMTDKHKVYFHKLGTKQSQDELIIGGDKFPRRYIGAYVTDDQRYLVVSAANATNGNELYIKDLKNKTDFIPIITGFDSNVNVADTDGDTLYLFTDKDAPNKRLVKTTIQNPKAETWKDVIAETSEPLEINTGGGYFFATYMKDAIDQVKQYDKNGKLVRAIKLPGSGNASGFGGEKTEKDLYYSFTNYITPPTIFKYNVTTGNSEVYQKPKVKFNPENYVSEQVFYTSSDGTKIPMMISYKKGLKKDGKNPTILYSYGGFNISLQPAFSVVNAIWMENGGIYAVPNIRGGGEYGKKWHDAGTKMQKKNVFNDFIAAGEYLQKNGYTSKEYMALSGRSNGGLLVGATMTMRPDLAKVAFPGVGVLDMLRYNKFTAGAGWAYDYGTAEDSKEMFEYLKSYSPVHNVKAGTCYPSTMVITSDHDDRVVPAHSFKFGSELQAKQSCKNPILIRIETNAGHGAGRSTEQVVAENADLLSFALYEMGIKSLK | comparable selectivity for both peptides | remarkably stable to destruction | at comparable rates | – | 5 fold
